Test results taken from paper PMC5998137, “Regulation of the β-hemolysin gene cluster of Streptococcus anginosus by CcpA”.

Target: CcpA (Streptococcus anginosus, UniProt A0A412PPL7 1-334)
Assay: EMSA; 0.5-8 µg CcpA, 5 pmol probe; no HPr or fructose-1,6-bisphosphate; 500-fold unlabeled creC inhibits the shift
Details: protein: recombinant; tags: N-terminal His6; chain copies: 2; label: 5' IRDye700 on strand 1 (probe); blunt

B1: creC (dsDNA)
DNA 1: GTTTACGCGAAAGCGCTTTTTTTATATA
DNA 2: TATATAAAAAAAGCGCTTTCGCGTAAAC
B1: binds.
